From patent US20020035733A1 (AREXIS, published 2002)

Each binder was assayed against insulin (125I-insulin mixed with unlabeled insulin) (assay: cell-based or functional assay).

Row | Binder | insulin degrading activity in intact COS-1 cells, percentage of wild type activity
1 | rat insulin degradation enzyme (IDE) variant A890V (valine for alanine at amino acid 890) (enzyme) MRNGLVWLLHPALPSTLHSILGARPPPVKRLCGFPKQIYSTMNNPAIQRIEDHIVKSPEDKREYRGLELANGIKVLLISDPTTDKSSAALDVHIGSLSDPPNIPGLSHFCEHMLFLGTKKYPKENEYSQFLSEHAGSSNAFTSGEHTNYYFDVSHEHLEGALDRFAQFFLCPLFDASCKDREVNAVDSEHEKNVMNDAWRLFQLEKATGNPKHPFSKFGTGNKYTLETRPNQEGIDVREELLKFHSTYYSSNLMAICVLGRESLDDLTNLVVKLFSEVENKNVPLPEFPEHPFQEEHLKQLYKIVPIKDIRNLYVTFPIPDLQQYYKSNPGHYLGHLIGHEGPGSLLSELKSKGWVNTLVGGQKEGARGFMFFIINVDLTEEGLLHVEDIILHMFQYIQKLRAEGPQEWVFQECKDLNAVAFRFKDKERPRGYTSKIAGKLHYYPLNGVLTAEYLLEEFRPDLIDMVLDKLRPENVRVAIVSKSFEGKTDRTEQWYGTQYKQEAIPEDVIQKWQNADLNGKFKLPTKNEFIPTNFEILALEKDATPYPALIKDTAMSKLWFKQDDKFFLPKACLNFEFFSPFAYVDPLHCNMAYLYLELLKDSLNEYAYAAELAGLSYDLQNTIYGMYLSVKGYNDKQPILLKKITEKMATFEIDKKRFEIIKEAYMRSLNNFRAEQPHQHAMYYLRLLMTEVAWTKDELKEALDDVTLPRLKAFIPQLLSRLHIEALLHGNITKQAALGVMQMVEDTLIEHAHTKPLLPSQLVRYREVQLPDRGWFVYQRRNEVHNNCGIEIYYQTDMQSTSENMFLELFCQIISEPCFNTLRTKEQLGYIVFSGPRRANGIQGLRFIIQSEKPPHYLESRVEAFLITMEKAIEDMTEEAFQKHIQALVIRRLDKPKKLSAECAKYWGEIISQQYNYDRDNIEVAYLKTLSKDDIIKFYKEMLAVDAPRRHKVSVHVLAREMDSCPVVGEFPSQNDINLSEAPPLPQPEVIHNMTEFKRGLPLFPLVKPHINFMAAKL | 95 % of wild type activity
2 | rat insulin degradation enzyme (IDE) variant H18R (arginine for histidine at amino acid 18) (enzyme) MRNGLVWLLHPALPSTLRSILGARPPPVKRLCGFPKQIYSTMNNPAIQRIEDHIVKSPEDKREYRGLELANGIKVLLISDPTTDKSSAALDVHIGSLSDPPNIPGLSHFCEHMLFLGTKKYPKENEYSQFLSEHAGSSNAFTSGEHTNYYFDVSHEHLEGALDRFAQFFLCPLFDASCKDREVNAVDSEHEKNVMNDAWRLFQLEKATGNPKHPFSKFGTGNKYTLETRPNQEGIDVREELLKFHSTYYSSNLMAICVLGRESLDDLTNLVVKLFSEVENKNVPLPEFPEHPFQEEHLKQLYKIVPIKDIRNLYVTFPIPDLQQYYKSNPGHYLGHLIGHEGPGSLLSELKSKGWVNTLVGGQKEGARGFMFFIINVDLTEEGLLHVEDIILHMFQYIQKLRAEGPQEWVFQECKDLNAVAFRFKDKERPRGYTSKIAGKLHYYPLNGVLTAEYLLEEFRPDLIDMVLDKLRPENVRVAIVSKSFEGKTDRTEQWYGTQYKQEAIPEDVIQKWQNADLNGKFKLPTKNEFIPTNFEILALEKDATPYPALIKDTAMSKLWFKQDDKFFLPKACLNFEFFSPFAYVDPLHCNMAYLYLELLKDSLNEYAYAAELAGLSYDLQNTIYGMYLSVKGYNDKQPILLKKITEKMATFEIDKKRFEIIKEAYMRSLNNFRAEQPHQHAMYYLRLLMTEVAWTKDELKEALDDVTLPRLKAFIPQLLSRLHIEALLHGNITKQAALGVMQMVEDTLIEHAHTKPLLPSQLVRYREVQLPDRGWFVYQRRNEVHNNCGIEIYYQTDMQSTSENMFLELFCQIISEPCFNTLRTKEQLGYIVFSGPRRANGIQGLRFIIQSEKPPHYLESRVEAFLITMEKAIEDMTEEAFQKHIQALAIRRLDKPKKLSAECAKYWGEIISQQYNYDRDNIEVAYLKTLSKDDIIKFYKEMLAVDAPRRHKVSVHVLAREMDSCPVVGEFPSQNDINLSEAPPLPQPEVIHNMTEFKRGLPLFPLVKPHINFMAAKL | 89 % of wild type activity
3 | rat insulin degradation enzyme (IDE), GK allele containing both H18R and A890V (enzyme) MRNGLVWLLHPALPSTLRSILGARPPPVKRLCGFPKQIYSTMNNPAIQRIEDHIVKSPEDKREYRGLELANGIKVLLISDPTTDKSSAALDVHIGSLSDPPNIPGLSHFCEHMLFLGTKKYPKENEYSQFLSEHAGSSNAFTSGEHTNYYFDVSHEHLEGALDRFAQFFLCPLFDASCKDREVNAVDSEHEKNVMNDAWRLFQLEKATGNPKHPFSKFGTGNKYTLETRPNQEGIDVREELLKFHSTYYSSNLMAICVLGRESLDDLTNLVVKLFSEVENKNVPLPEFPEHPFQEEHLKQLYKIVPIKDIRNLYVTFPIPDLQQYYKSNPGHYLGHLIGHEGPGSLLSELKSKGWVNTLVGGQKEGARGFMFFIINVDLTEEGLLHVEDIILHMFQYIQKLRAEGPQEWVFQECKDLNAVAFRFKDKERPRGYTSKIAGKLHYYPLNGVLTAEYLLEEFRPDLIDMVLDKLRPENVRVAIVSKSFEGKTDRTEQWYGTQYKQEAIPEDVIQKWQNADLNGKFKLPTKNEFIPTNFEILALEKDATPYPALIKDTAMSKLWFKQDDKFFLPKACLNFEFFSPFAYVDPLHCNMAYLYLELLKDSLNEYAYAAELAGLSYDLQNTIYGMYLSVKGYNDKQPILLKKITEKMATFEIDKKRFEIIKEAYMRSLNNFRAEQPHQHAMYYLRLLMTEVAWTKDELKEALDDVTLPRLKAFIPQLLSRLHIEALLHGNITKQAALGVMQMVEDTLIEHAHTKPLLPSQLVRYREVQLPDRGWFVYQRRNEVHNNCGIEIYYQTDMQSTSENMFLELFCQIISEPCFNTLRTKEQLGYIVFSGPRRANGIQGLRFIIQSEKPPHYLESRVEAFLITMEKAIEDMTEEAFQKHIQALVIRRLDKPKKLSAECAKYWGEIISQQYNYDRDNIEVAYLKTLSKDDIIKFYKEMLAVDAPRRHKVSVHVLAREMDSCPVVGEFPSQNDINLSEAPPLPQPEVIHNMTEFKRGLPLFPLVKPHINFMAAKL | 69 % of wild type activity
